Among the data in patent US20170137467A1 (CHROMOTEK, published 2017) are ratio values, retold here.

Numbering of substitutions follows the chain as printed. Names may count otherwise. Square brackets hold non-standard residues; d marks the D form. GABA = NCCCC(=O)O

The target in assay [1] is T1, BC2T K4E (human).
T1 construct: position 4 library, row E
T1 peptide: Ac-PDREAAVSHWQQ-NH2
The experiment in a line: library pulldown, LC-MS of supernatant; ratio vs GFP-Nb control (0=captured, 1=not captured). In outline: (§1)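 Unbound peptide left in supernatant after 1 h pulldown in PBS/0.01% CHAPS measured by reversed-phase LC-MS (8–30% eluent B gradient, 20 min).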

Assay [2] concerns the target T2, BC2T V7E.
T2 construct: positional scanning library member
T2 peptide: Ac-PDRKAAESHWQQ-NH2
The experiment in a line: positional peptide library pulldown on immobilised Nb, LC-MS of supernatant; signal ratio to control GFP-Nb (1 = not captured, near 0 = captured). The procedure, abridged:
as §1

The target of assay [3] is T3, BC2T V7W.
T3 construct: positional scanning library member
T3 peptide: Ac-PDRKAAWSHWQQ-NH2
Described as above. The procedure, abridged: as §1

Assay [4] concerns the target T4, BC2T A6Y.
T4 construct: positional scanning library member
T4 peptide: Ac-PDRKAYVSHWQQ-NH2
The description is as above. In outline: as §1

Assay [5] concerns the target T5, BC2T K4Y.
T5 construct: positional scanning library member
T5 peptide: Ac-PDRYAAVSHWQQ-NH2
The assay is described as above. The procedure, abridged: as §1

The target of assay [6] is T6, BC2T D2R.
T6 construct: positional scanning library member
T6 peptide: Ac-PRRKAAVSHWQQ-NH2
The description is as above. In outline: as §1

Assay [7] addresses T7, BC2T K4T.
T7 construct: positional scanning library member
T7 peptide: Ac-PDRTAAVSHWQQ-NH2
The description is as above. In outline: as §1

Assay [8] deals with T8, BC2T A5F.
T8 construct: positional scanning library member
T8 peptide: Ac-PDRKFAVSHWQQ-NH2
Described as above. In outline: as §1

Assay [9] addresses T9, BC2T A5P.
T9 construct: positional scanning library member
T9 peptide: Ac-PDRKPAVSHWQQ-NH2
Described as above. The procedure, abridged:
as §1

Assay [10] has as its target T10, BC2T D2P.
T10 construct: positional scanning library member
T10 peptide: Ac-PPRKAAVSHWQQ-NH2
The description is as above. In outline:
as §1

Assay [11] addresses T11, BC2T A6W.
T11 construct: positional scanning library member
T11 peptide: Ac-PDRKAWVSHWQQ-NH2
The description is as above. The procedure, abridged: as §1

Assay [12] addresses T12, BC2T R3C(Abu) (SMILES …).
T12 construct: positional scanning library member
T12 peptide: Ac-PD[GABA]KAAVSHWQQ-NH2
Described as above. The procedure, abridged:
as §1

Assay [13] deals with T13, BC2T P1H.
T13 construct: positional scanning library member
T13 peptide: Ac-HDRKAAVSHWQQ-NH2
The description is as above. The procedure, abridged:
as §1

The target of assay [14] is T14, BC2T R3H.
T14 construct: positional scanning library member
T14 peptide: Ac-PDHKAAVSHWQQ-NH2
The description is as above. The procedure, abridged:
as §1

The target of assay [15] is T15, BC2T D2N.
T15 construct: positional scanning library member
T15 peptide: Ac-PNRKAAVSHWQQ-NH2
The assay is described as above. The procedure, abridged:
as §1

Assay [16] deals with T16, BC2T R3F.
T16 construct: positional scanning library member
T16 peptide: Ac-PDFKAAVSHWQQ-NH2
The assay is described as above. The procedure, abridged:
as §1

Assay [17] has as its target T17, BC2T P1D.
T17 construct: positional scanning library member
T17 peptide: Ac-DDRKAAVSHWQQ-NH2
Described as above. The procedure, abridged: as §1

In assay [18] the target is T18, BC2T A5N.
T18 construct: positional scanning library member
T18 peptide: Ac-PDRKNAVSHWQQ-NH2
Described as above. The procedure, abridged: as §1

In assay [19] the target is T19, BC2T A6C(Abu) (SMILES …).
T19 construct: positional scanning library member
T19 peptide: Ac-PDRKA[GABA]VSHWQQ-NH2
The description is as above. The procedure, abridged: as §1

Assay [20] addresses T20, BC2T Q11V library peptide (human).
T20 peptide: Ac-PDRKAAVSHWVQ-NH2
The experiment in a line: peptide library pulldown on immobilized Nb, LC-MS of supernatant; ratio vs GFP-Nb control (1 = not captured, 0 = captured). From the text: (§2) In total, 12 different BC2T libraries displaying all 20 proteinogenic amino acids in one single position of the peptide were used in immunoprecipitation experiments. […] The direct comparison with the GFP-Nb made it possible to determine the quantitative degree of peptide capture without the need of labeled standards. […] The more peptide was captured the more the value approximates 0. It was not possible to discriminate between isoleucine (I) and leucine (L) peptide versions since these peptides are isobaric.
(§3) To investigate the binding specificity of the BC2T and derived mutants peptide libraries for each amino acid position of the sequence […] (SEQ ID NO:4) were synthesized with acetyl and amide groups located at the N-termini or C-termini respectively (Intavis). […] Incubations were performed in 300 μl PBS/0.01% CHAPS for 1 h on a HulaMixer (Life Technologies). Subsequent to a centrifugation step 10 μl supernatant were analyzed in a LC-MS procedure. Peptides were separated using an UltiMate3000 RSLCnano System (Thermo Scientific), composed of a C18 PepMap100μ-Precolumn (300 μm×5 mm; particle size: 5 μm; pore size: 100 Å—Thermo Scientific) and a C18 analytical column (Acclaim Rapid Separation LC (RSLC) Column: 150 mm×5 mm; particle size: 2.2 μm; pore size: 100 Å—Thermo Scientific). A step gradient was applied starting at 8% and ending after 20 min at 30% eluent B (80% acetonitrile, 20% H₂O, 0.1% formic acid).

In assay [21] the target is T21, BC2T Q11A library peptide (human).
T21 peptide: Ac-PDRKAAVSHWAQ-NH2
The description is as above.
Excerpt: as §2, §3

B1: BC2 nanobody (BC2-Nb) (VHH)
VHH: QVQLVESGGGLVQPGGSLTLSCTASGFTLDHYDIGWFRQAPGKEREGVSCINNSDDDTYYADSVKGRFTIFMDNAKDTVYLQMNSLKPEDTAIYYCAEARGCKRGRYEYDFWGQGTQVTVSS
notes: immobilised on agarose/sepharose beads in this assay; also called BC2 nanotrap (immobilised form); not shown: C-terminal 6xHis-tag added by pHEN6 vector
With B1, the ratio in assay [1] came to 0.5.

B2: BC2-NbR106E (VHH)
VHH: B1 VHH with R106E
notes: headlock mutant of BC2-Nb; immobilised on beads in this assay
In the case of B2, the ratio was 0.9 in assay [2]; 0.2 in assay [3]; 1 in assay [4]; 0.3 in assay [5]; 0.1 in assay [6]; 0.5 in assay [7]. Besides, the ratio worked out at 0.1 in assay [8]; 0.2 in assay [9]; 0.8 in [10]; 1 in [11]; 0.9 in assay [12]; 0.4 in [13]. Besides, the ratio in [14] stood at 0.5; in [15], 0.2; in assay [16], 1; in assay [17], 0.8; in assay [18], 0.3; in assay [19], 0.1.

B3: BC2-Nb(R106E) (VHH)
VHH: B1 VHH with R106E
notes: Headlock mutant; immobilized on beads in the library pulldown
For B3, the ratio in [20] turned out to be 0.2; in [21] it was 0.3.
